The values below come from doi:10.1101/2021.12.01.470767 (bioRxiv, 2021).

Substitutions are numbered along the chain they refer to.

Common to all, as to test: flow cytometry on cells
A general note: Flow cytometry measures light scatter and fluorescence of single cells or particles in a stream.

For assay [1], the target named is full-length SARS-CoV S, cell surface-expressed (SARS-CoV, strain , UniProt P59594).
Assay [2] addresses full-length S of bat CoV SHC014, cell surface-expressed (Bat SARS-like coronavirus RsSHC014, UniProt U5WLK5).
Assay [3] addresses full-length S of endemic HCoV NL63, cell surface-expressed (Human coronavirus NL63, strain not …, UniProt Q6Q1S2).
Assay [4] has as its target full-length S of endemic HCoV OC43, cell surface-expressed (Human coronavirus OC43, strain not …, UniProt P36334).
Assay [5] has as its target full-length S of endemic HCoV 229E, cell surface-expressed (Human coronavirus 229E, strain not …, UniProt P15423).
The target in assay [6] is full-length MERS-CoV S, cell surface-expressed (MERS-CoV, strain , UniProt K9N5Q8).
Assay [7] addresses full-length SARS-CoV-2 S (WT), cell surface-expressed (SARS-CoV-2, ancestral (Wuhan-Hu-1), UniProt P0DTC2).

B1: COVA1-07 (antibody, V domains shown)
VH: QVQLVESGAEVKKPGSSVKVSCKASGGTLSSYAITWVRQAPGQGLEWVGGIIPIFGTANYAQKFQGRVTITADESTSTAYMELSSLRSEDTAVYYCARVGAYDSSGYSNDYWGQGTLVTVSS
VL: DIQLTQSPATLSLSPGERATLSCRASQSVSSYLAWYQQKPGQAPRLLIYDASNRATGIPARFSGSGSGTDFTLTISSLEPEDFAVYYCQQRSNWPPRVTFGGGTKVEIK
With B1, the binding result in assay [1] is reported as “binds”; in assay [2], “binds”; in assay [3] it was “no binding (tested: 50 μg/mL)”; in assay [4], “no binding (tested: 50 μg/mL)”; in assay [5], “no binding (tested: 50 μg/mL)”; in assay [6], “no binding (tested: 50 μg/mL)”. In assay [7], the binding result is given as “binds”.

B2: COVA2-14 (antibody, V domains shown)
VH: B1 VH with E6Q, L29F, T35I, V48M, A72T, G100R, A101Y, S108Y, N109E
VL: B1 VL with D1E, Q3V, K39E, R97M, V98Y, G102Q
Turning to B2, the binding result in assay [1] was “binds”; in assay [2], “binds”; in assay [3], “no binding (tested: 50 μg/mL)”; in assay [4], “no binding (tested: 50 μg/mL)”; in assay [5] it was “no binding (tested: 50 μg/mL)”; in assay [6], “no binding (tested: 50 μg/mL)”. In assay [7], the binding result is listed as “binds”.

B3: COVA2-18 (antibody, V domains shown)
VH: EVQLVQSGAEVKKPGSSVKVSCKASGGTFSSYAISWVRQAPGQGLEWMGGIIPIFGTTNYAQKFQGRVTITTDESTSTAYMELSSLRSEDTAVYYCARVYSYDSSGYYLEYWGQGTRVTVSS
VL: B1 VL with D1E, Q3V, R97S, V98I, G102Q, K105R, V106L
For the molecule B3, the binding result in assay [1] is reported as “binds”; in assay [2], “binds”; in assay [3], “no binding (tested: 50 μg/mL)”; in assay [4] it was “no binding (tested: 50 μg/mL)”; in assay [5], “no binding (tested: 50 μg/mL)”; in assay [6] it was “no binding (tested: 50 μg/mL)”. Also, the binding result in assay [7] is on record as “binds”.
